Positions of bridges follow the written chain, without caps; N, C: chain ends. Non-standard residues stand in square brackets, D forms with d. Sar = CNCC(=O)O
Assays:
[1] = molecular target: T1, Human C3 (Complement tech cat #A113c) (human, UniProt P01024 23-1663); assay: cell-based or functional assay
[2] = molecular target: T1, Human C3 (Complement tech cat #A113c); assay: cell-based or functional assay; remark: listed apart in the source

T1 sequence (P01024 23-1663 limits assumed): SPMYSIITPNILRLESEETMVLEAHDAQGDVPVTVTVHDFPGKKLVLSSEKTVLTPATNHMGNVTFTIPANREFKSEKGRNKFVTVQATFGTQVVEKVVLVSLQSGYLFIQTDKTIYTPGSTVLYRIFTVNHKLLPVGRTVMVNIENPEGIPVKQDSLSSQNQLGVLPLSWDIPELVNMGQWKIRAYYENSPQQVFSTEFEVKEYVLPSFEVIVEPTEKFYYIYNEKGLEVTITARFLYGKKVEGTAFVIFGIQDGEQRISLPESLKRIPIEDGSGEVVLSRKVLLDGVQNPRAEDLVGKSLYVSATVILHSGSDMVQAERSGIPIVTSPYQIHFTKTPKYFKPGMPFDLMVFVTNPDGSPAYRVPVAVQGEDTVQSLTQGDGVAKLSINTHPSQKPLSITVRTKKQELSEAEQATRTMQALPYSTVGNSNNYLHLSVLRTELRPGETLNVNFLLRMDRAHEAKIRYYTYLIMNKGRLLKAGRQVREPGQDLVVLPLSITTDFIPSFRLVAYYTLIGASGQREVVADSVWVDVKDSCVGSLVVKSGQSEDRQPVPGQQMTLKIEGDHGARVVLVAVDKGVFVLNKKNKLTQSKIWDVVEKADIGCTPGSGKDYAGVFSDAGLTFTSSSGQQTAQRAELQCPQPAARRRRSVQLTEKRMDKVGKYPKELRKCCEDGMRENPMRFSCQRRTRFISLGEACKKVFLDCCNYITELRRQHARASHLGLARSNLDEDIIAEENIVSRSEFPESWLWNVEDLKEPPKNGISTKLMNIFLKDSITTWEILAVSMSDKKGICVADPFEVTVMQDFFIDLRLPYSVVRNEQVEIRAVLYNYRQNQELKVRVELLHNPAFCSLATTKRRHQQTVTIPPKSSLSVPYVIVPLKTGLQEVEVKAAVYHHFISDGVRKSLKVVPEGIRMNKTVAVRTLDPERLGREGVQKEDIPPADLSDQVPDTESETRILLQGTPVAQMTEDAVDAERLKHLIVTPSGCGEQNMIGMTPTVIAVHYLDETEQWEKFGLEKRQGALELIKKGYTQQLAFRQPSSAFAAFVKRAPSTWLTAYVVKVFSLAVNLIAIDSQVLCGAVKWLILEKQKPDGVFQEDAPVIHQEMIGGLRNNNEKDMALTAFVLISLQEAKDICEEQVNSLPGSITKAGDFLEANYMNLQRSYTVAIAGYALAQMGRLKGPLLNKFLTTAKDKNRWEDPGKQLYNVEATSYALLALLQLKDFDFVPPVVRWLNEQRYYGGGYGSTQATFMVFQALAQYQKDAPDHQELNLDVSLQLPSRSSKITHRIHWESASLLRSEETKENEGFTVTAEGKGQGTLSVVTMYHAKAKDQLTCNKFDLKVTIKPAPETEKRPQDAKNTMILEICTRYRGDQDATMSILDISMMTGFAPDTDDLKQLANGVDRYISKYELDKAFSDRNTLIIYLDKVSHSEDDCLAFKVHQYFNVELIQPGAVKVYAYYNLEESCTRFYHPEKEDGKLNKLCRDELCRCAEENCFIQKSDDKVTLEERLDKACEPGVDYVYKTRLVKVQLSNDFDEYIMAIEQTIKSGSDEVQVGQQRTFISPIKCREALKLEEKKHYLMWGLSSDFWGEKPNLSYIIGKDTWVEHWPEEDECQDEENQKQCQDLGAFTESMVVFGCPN

Binder | CP hemolysis IC50 [1] [nM] | inhibition of hemolysis IC50 [2] [nM]
Ac-ICVWQDWGEHRCTEGE-NH2 (disulfide 2-12; SMILES CC[C@H](C)[C@H](NC(C)=O)C(=O)N[C@H]1CSSC[C@@H](C(=O)N[C@H](C(=O)N[C@@H](CCC(=O)O)C(=O)NCC(=O)N[C@@H](CCC(=O)O)C(N)=O)[C@@H](C)O)NC(=O)[C@H](CCCNC(=N)N)NC(=O)[C@H](Cc2c[nH]cn2)NC(=O)[C@H](CCC(=O)O)NC(=O)CNC(=O)[C@H](Cc2c[nH]c3ccccc23)NC(=O)[C@H](CC(=O)O)NC(=O)[C@H](CCC(N)=O)NC(=O)[C@H](Cc2c[nH]c3ccccc23)NC(=O)[C@H](C(C)C)NC1=O) [Compound J] | 240 | –
Ac-ESSAICIWQDWGEHRCT-NH2 (disulfide 6-16; SMILES CC[C@H](C)[C@H](NC(=O)[C@H](C)NC(=O)[C@H](CO)NC(=O)[C@H](CO)NC(=O)[C@H](CCC(=O)O)NC(C)=O)C(=O)N[C@H]1CSSC[C@@H](C(=O)N[C@H](C(N)=O)[C@@H](C)O)NC(=O)[C@H](CCCNC(=N)N)NC(=O)[C@H](Cc2c[nH]cn2)NC(=O)[C@H](CCC(=O)O)NC(=O)CNC(=O)[C@H](Cc2c[nH]c3ccccc23)NC(=O)[C@H](CC(=O)O)NC(=O)[C@H](CCC(N)=O)NC(=O)[C@H](Cc2c[nH]c3ccccc23)NC(=O)[C@H]([C@@H](C)CC)NC1=O) [Compound 3] | 69 | < 100
Ac-ICIWQDWGAHSCT-NH2 (disulfide 2-12; SMILES CC[C@H](C)[C@H](NC(C)=O)C(=O)N[C@H]1CSSC[C@@H](C(=O)N[C@H](C(N)=O)[C@@H](C)O)NC(=O)[C@H](CO)NC(=O)[C@H](Cc2c[nH]cn2)NC(=O)[C@H](C)NC(=O)CNC(=O)[C@H](Cc2c[nH]c3ccccc23)NC(=O)[C@H](CC(=O)O)NC(=O)[C@H](CCC(N)=O)NC(=O)[C@H](Cc2c[nH]c3ccccc23)NC(=O)[C@H]([C@@H](C)CC)NC1=O) [Compound 19] | 140 | < 250
Ac-EGSAICVWQDWGEHRC[Sar]E-NH2 (disulfide 6-16; SMILES CC[C@H](C)[C@H](NC(=O)[C@H](C)NC(=O)[C@H](CO)NC(=O)CNC(=O)[C@H](CCC(=O)O)NC(C)=O)C(=O)N[C@H]1CSSC[C@@H](C(=O)N(C)CC(=O)N[C@@H](CCC(=O)O)C(N)=O)NC(=O)[C@H](CCCNC(=N)N)NC(=O)[C@H](Cc2c[nH]cn2)NC(=O)[C@H](CCC(=O)O)NC(=O)CNC(=O)[C@H](Cc2c[nH]c3ccccc23)NC(=O)[C@H](CC(=O)O)NC(=O)[C@H](CCC(N)=O)NC(=O)[C@H](Cc2c[nH]c3ccccc23)NC(=O)[C@H](C(C)C)NC1=O) [Compound H] | 330 | –
Ac-ICIWQDWGSHRCT-NH2 (disulfide 2-12; SMILES CC[C@H](C)[C@H](NC(C)=O)C(=O)N[C@H]1CSSC[C@@H](C(=O)N[C@H](C(N)=O)[C@@H](C)O)NC(=O)[C@H](CCCNC(=N)N)NC(=O)[C@H](Cc2c[nH]cn2)NC(=O)[C@H](CO)NC(=O)CNC(=O)[C@H](Cc2c[nH]c3ccccc23)NC(=O)[C@H](CC(=O)O)NC(=O)[C@H](CCC(N)=O)NC(=O)[C@H](Cc2c[nH]c3ccccc23)NC(=O)[C@H]([C@@H](C)CC)NC1=O) [Compound 6] | 140 | < 250
